Measured values reported in the supplement of paper PMC10201428.
± gives the standard deviation of the averaged measurements.

B1: library; a variant is named by its letters at N, in order (parent)
chain: AATGTTGTTGATGCAACCATAAAGTGATATTTAATAATTATTTATAATCAGCAACTTAACCACAAAACAACCATATATTGATATNTCACAAAACAACCATAANTTGATATTTTTGTGAATCGAGTATTTCAGCAAAACTACTGCAGTAAGAA

Key:
[1] = variants of: B1; experiment: relative integration efficiency (T-LR orientation) vs wild-type transposon end (log2 (normalized fold change)); transposon end mutated: left end; higher = more efficient transposition; details: with VchCAST RNA-guided transposition machinery (E. coli BL21(DE3) host, lacZ target)
Outline: (§1)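 Barcoded pools of 1549 left-end or 1849 right-end transposon variants were cloned into a pUC57 mini-transposon donor. Each pool was co-transformed with a T7-driven effector plasmid (CRISPR array, tniQ-cas8-cas7-cas6, tnsA-tnsB-tnsC) into E. coli BL21(DE3) and plated with 0.1 mM IPTG at 37°C for 18 h. Input plasmids and genomic integration junctions were PCR-amplified and Illumina-sequenced, with two biological output replicates and four wild-type barcodes as reference. Relative integration efficiency is output/input barcode abundance fold change, normalised to wild-type barcodes and log-transformed.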

[2] = variants of: B1; experiment: relative integration efficiency (T-RL orientation) vs wild-type transposon end (log2 (normalized fold change)); transposon end mutated: left end; higher = more efficient transposition; details: with VchCAST RNA-guided transposition machinery (E. coli BL21(DE3) host, lacZ target)
Outline: as §1

Variant	relative integration efficiency (log2) [1]	relative integration efficiency (log2) [2]
CG A88C	-0.0509 ± 0.39	-0.148 ± 0.082
CG A88C C89A	0.0423 ± 0.026	0.0174 ± 0.062
CG A88C C89A A90C A91C	-0.0905 ± 0.58	-0.404 ± 0.32
CG A88G	-0.182 ± 0.22	-0.24 ± 0.098
CG A88T	0.112 ± 0.73	0.0226 ± 0.1
CG A88T C89G	0.362 ± 0.31	0.178 ± 0.048
CG A88T C89G A90T A91T	-0.283 ± 0.86	-0.432 ± 0.33
CG A90C	-0.155 ± 0.19	-0.278 ± 0.11
CG A90C A91C	-0.406 ± 0.87	-0.15 ± 0.34
CG A90C A91C A92C A93C	-0.132 ± 0.77	-0.283 ± 0.31
CG A90G	-0.331 ± 0.48	-0.339 ± 0.053
CG A90T	-0.375 ± 0.31	-0.404 ± 0.16
CG A90T A91T	0.245 ± 0.23	-0.308 ± 0.26
CG A90T A91T A92T A93T	-0.429 ± 0.24	-0.557 ± 0.36
CG A91C	-0.299 ± 1.1	-0.278 ± 0.17
CG A91C A92C	0.242 ± 0.39	-0.116 ± 0.2
CG A91C A92C A93C C94A	-0.269 ± 0.36	-0.581 ± 0.55
CG A91G	0.0207 ± 0.21	-0.155 ± 0.14
CG A91T	-0.0651 ± 0.68	-0.101 ± 0.084

Variant	relative integration efficiency (log2) [1]	relative integration efficiency (log2) [2]
CG A91T A92T	0.705 ± 0.2	0.108 ± 0.066
CG A91T A92T A93T C94G	-1.3 ± 1.2	-1.4 ± 0.69
CG A92C	-0.321 ± 0.19	-0.313 ± 0.19
CG A92C A93C	-0.222 ± 0.86	-0.331 ± 0.24
CG A92C A93C C94A A95C	-1.74 ± 0.33	-1.09 ± 0.75
CG A92G	-0.495 ± 0.53	-0.563 ± 0.18
CG A92T	0.606 ± 0.37	-0.0452 ± 0.064
CG A92T A93T	-0.29 ± 0.86	-0.445 ± 0.23
CG A92T A93T C94G A95T	-3.64 ± 1.2	-1.61 ± 0.83
CG A93C	-0.0609 ± 0.5	-0.288 ± 0.19
CG A93C C94A	-0.406 ± 0.83	-0.522 ± 0.41
CG A93C C94A A95C A96C	-0.979 ± 1.9	-1.09 ± 0.56
CG A93G	-0.13 ± 0.37	-0.207 ± 0.083
CG A93T	-0.975 ± 0.63	-0.479 ± 0.33
CG A93T C94G	-1.04 ± 0.89	-1.35 ± 0.65
CG A93T C94G A95T A96T	-2.14 ± 0.41	-1.82 ± 0.58
CG A95C	-0.179 ± 0.35	-0.318 ± 0.063
CG A95C A96C	-0.693 ± 0.86	-0.385 ± 0.4
CG A95C A96C C97A C98A	-1.32 ± 1.8	-2.14 ± 0.8

Variant	relative integration efficiency (log2) [1]	relative integration efficiency (log2) [2]
CG A95G	-1.23 ± 0.42	-0.845 ± 0.39
CG A95T	-0.598 ± 0.89	-0.00814 ± 0.24
CG A95T A96T	-0.891 ± 0.57	-0.379 ± 0.28
CG A95T A96T C97G C98G	-1.79 ± 0.29	-1.94 ± 0.81
CG A96C	0.848 ± 0.0087	0.7239 ± 0.0024
CG A96C C97A	-2 ± 1	-1.33 ± 0.57
CG A96C C97A C98A A99C	-1.79 ± 0.72	-2.25 ± 0.85
CG A96G	-1.06 ± 0.18	-0.704 ± 0.32
CG A96T	-0.52 ± 0.14	-0.314 ± 0.13
CG A96T C97G	-0.64 ± 0.43	-0.723 ± 0.29
CG A96T C97G C98G A99T	-2 ± 1.1	-2.05 ± 0.9
CG A99C	-1.01 ± 0.78	-1.23 ± 0.65
CG A99C T100G	-1.66 ± 1.1	-1.87 ± 0.76
CG A99C T100G A101C A102C	-1.07 ± 1.4	-1.82 ± 0.89
CG A99G	-0.0966 ± 0.58	-0.278 ± 0.18
CG A99T	-1.41 ± 0.62	-0.877 ± 0.54
CG A99T T100A	-1.17 ± 0.8	-1.19 ± 0.47
CG A99T T100A A101T A102T	-0.997 ± 0.78	-1.06 ± 0.48
CG A101C	-1.67 ± 0.92	-1.29 ± 0.49
